Experiments:
[1] = target: HIV-1 NL4-3 Vif N48H (residues 1-176) (HIV-1 (pNL4-3)) (UniProt P12504)
[2] = target: HIV-1 pNL4-3 Vif N48H/R93E, expressed in HEK293T (HIV-1 (pNL4-3)) (UniProt P12504)

Substance | Vif-mediated degradation assay: resistance of A3H to Vif (+N48H), Western blot [1] | Vif-mediated degradation assay: increase of the A3H level in the presence of the Vif mutant, Western blot [2]
human A3H K97Q/E70R, expressed in HEK293T (natural protein) | 40% | –
human A3H haplotype II K97Q (MBP tag cleaved) (natural protein) | – | 70%

— article PMC10462622
